A word on the Kd: it is a measure of binding affinity in units of concentration. Low values mean a tighter complex, high ones a looser complex.

This passage reports Kd results from PMC2903434.

The target in the assay is PAK1 kinase domain (K298R mutant), residues 250-545 from PAK-fl (UniProt Q13153).

Turning to “truncated autoinhibitory domain (trunc-AID, residues 83-137) from PAK1 (from UniProt Q13153 83-137) (domain or fragment)”, the Kd came out at 4 µM.
